Source: patent publication US20120107932A1, “PRRS-VIRUS RECEPTOR AND ITS INHIBITOR” (priority 2009, published 2012)

Legend:
PRRS virus (PRRSV) = experiment: cell-based or functional assay
[1] = target: non-muscle myosin heavy chain II-A (NMHC II-A) protein; experiment: indirect ELISA, antigen coated 200 ng/well, serum dilution 10^-3; control of the anti-polypeptide (Seq ID No: 3) group
[2] = target: NMHC II-A artificial polypeptide (Seq ID No: 3); experiment: as above
[3] = target: non-muscle myosin heavy chain II-A (NMHC II-A) protein; experiment: indirect ELISA, antigen coated 200 ng/well, serum dilution 10^-5; control of the anti-polypeptide (Seq ID No: 4) group
[4] = target: NMHC II-A artificial polypeptide (Seq ID No: 4); experiment: as above
[5] = target: non-muscle myosin heavy chain II-A (NMHC II-A) protein; experiment: indirect ELISA, antigen coated 200 ng/well, serum dilution 10^-3; control of the anti-polypeptide (Seq ID No: 2) group
[6] = target: NMHC II-A artificial polypeptide (Seq ID No: 2); experiment: as above
[7] = target: non-muscle myosin heavy chain II-A (NMHC II-A) protein; experiment: indirect ELISA, antigen coated 200 ng/well, serum dilution 10^-5; control of the anti-polypeptide (Seq ID No: 3) group
[8] = target: NMHC II-A artificial polypeptide (Seq ID No: 3); experiment: as above
[9] = target: non-muscle myosin heavy chain II-A (NMHC II-A) protein; experiment: indirect ELISA, antigen coated 200 ng/well, serum dilution 10^-2; control of the anti-polypeptide (Seq ID No: 3) group
[10] = target: NMHC II-A artificial polypeptide (Seq ID No: 3); experiment: as above
[11] = target: non-muscle myosin heavy chain II-A (NMHC II-A) protein; experiment: indirect ELISA, antigen coated 200 ng/well, serum dilution 10^-5; control of the anti-polypeptide (Seq ID No: 2) group
[12] = target: NMHC II-A artificial polypeptide (Seq ID No: 2); experiment: as above
[13] = target: non-muscle myosin heavy chain II-A (NMHC II-A) protein; experiment: indirect ELISA, antigen coated 200 ng/well, serum dilution 10^-4; control of the anti-polypeptide (Seq ID No: 2) group
[14] = target: NMHC II-A artificial polypeptide (Seq ID No: 2); experiment: as above
[15] = target: non-muscle myosin heavy chain II-A (NMHC II-A) protein; experiment: indirect ELISA, antigen coated 200 ng/well, serum dilution 10^-4; control of the anti-polypeptide (Seq ID No: 4) group
[16] = target: NMHC II-A artificial polypeptide (Seq ID No: 4); experiment: as above
[17] = target: non-muscle myosin heavy chain II-A (NMHC II-A) protein; experiment: indirect ELISA, antigen coated 200 ng/well, serum dilution 10^-2; control of the anti-polypeptide (Seq ID No: 2) group
[18] = target: NMHC II-A artificial polypeptide (Seq ID No: 2); experiment: as above
[19] = target: NMHC II-A artificial polypeptide (Seq ID No: 3); experiment: indirect ELISA, antigen coated 200 ng/well, serum dilution 10^-4; control of the anti-polypeptide (Seq ID No: 3) group
[20] = target: non-muscle myosin heavy chain II-A (NMHC II-A) protein; experiment: indirect ELISA, antigen coated 200 ng/well, serum dilution 10^-2; control of the anti-polypeptide (Seq ID No: 4) group
[21] = target: NMHC II-A artificial polypeptide (Seq ID No: 4); experiment: as above
[22] = target: non-muscle myosin heavy chain II-A (NMHC II-A) protein; experiment: indirect ELISA, antigen coated 200 ng/well, serum dilution 10^-3; control of the anti-polypeptide (Seq ID No: 4) group
[23] = target: NMHC II-A artificial polypeptide (Seq ID No: 4); experiment: as above

Which CPE caused by PRRSV on Marc-145 and PAM cells, blocker at 1 µg/well ('+' means CPE in 25% cells) (% cells with CPE) (PRRS virus (PRRSV)) does the source give for “non-muscle myosin heavy chain II-A (NMHC II-A) protein (receptor)” here?
The CPE caused by PRRSV on Marc-145 and PAM cells, blocker at 1 µg/well ('+' means CPE in 25% cells) (% cells with CPE) was 25.

How did the OD value (450 nm) [1] turn out when “Negative control sera (mouse serum before immunization) (antibody)” was run?
The OD value (450 nm) was 0.11 OD.

What about the OD value (450 nm) [2] of the same substance?
Its OD value (450 nm) is 0.13 OD.

And the OD value (450 nm) [3]?
The OD value (450 nm) was 0.07 OD.

And the OD value (450 nm) [4]?
Its OD value (450 nm) is 0.09 OD.

And the OD value (450 nm) [5]?
Its OD value (450 nm) is 0.1 OD.

And the OD value (450 nm) [6]?
The OD value (450 nm) was 0.11 OD.

What about the OD value (450 nm) [7] of the same substance?
The OD value (450 nm) was 0.07 OD.

What about the OD value (450 nm) [8] of the same substance?
Its OD value (450 nm) is 0.08 OD.

And the OD value (450 nm) [9]?
Its OD value (450 nm) is 0.12 OD.

What about the OD value (450 nm) [10] of the same substance?
Its OD value (450 nm) is 0.11 OD.

What about the OD value (450 nm) [11] of the same substance?
Its OD value (450 nm) is 0.08 OD.

And the OD value (450 nm) [12]?
The OD value (450 nm) was 0.07 OD.

What about the OD value (450 nm) [13] of the same substance?
The OD value (450 nm) was 0.1 OD.

And the OD value (450 nm) [14]?
Its OD value (450 nm) is 0.08 OD.

And the OD value (450 nm) [15]?
The OD value (450 nm) was 0.08 OD.

What about the OD value (450 nm) [16] of the same substance?
Its OD value (450 nm) is 0.1 OD.

What about the OD value (450 nm) [17] of the same substance?
Its OD value (450 nm) is 0.13 OD.

What about the OD value (450 nm) [18] of the same substance?
Its OD value (450 nm) is 0.12 OD.

What about the OD value (450 nm) [19] of the same substance?
The OD value (450 nm) was 0.09 OD.

And the OD value (450 nm) [20]?
Its OD value (450 nm) is 0.14 OD.

What about the OD value (450 nm) [21] of the same substance?
The OD value (450 nm) was 0.15 OD.

And the OD value (450 nm) [22]?
Its OD value (450 nm) is 0.11 OD.

And the OD value (450 nm) [23]?
The OD value (450 nm) was 0.13 OD.
